According to paper PMC2248737:

T1: ttSSB (Thermus thermophilus HB8, UniProt Q5SLP9 1-263)
T1 sequence: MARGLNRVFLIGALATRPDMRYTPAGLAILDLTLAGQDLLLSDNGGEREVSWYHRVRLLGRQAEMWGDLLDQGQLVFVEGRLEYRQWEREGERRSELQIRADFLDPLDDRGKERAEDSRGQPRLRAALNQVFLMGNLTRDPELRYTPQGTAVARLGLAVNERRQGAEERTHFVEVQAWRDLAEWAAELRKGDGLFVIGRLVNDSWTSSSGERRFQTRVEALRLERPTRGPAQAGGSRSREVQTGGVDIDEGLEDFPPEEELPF

T2: ttRecR (Thermus thermophilus HB8, UniProt Q5SHY0 1-194)
T2 sequence: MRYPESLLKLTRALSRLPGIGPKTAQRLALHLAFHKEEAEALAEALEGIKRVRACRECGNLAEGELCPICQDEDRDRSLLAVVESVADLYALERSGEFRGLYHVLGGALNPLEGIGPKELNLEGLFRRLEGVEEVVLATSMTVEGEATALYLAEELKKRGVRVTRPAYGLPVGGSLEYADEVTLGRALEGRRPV

B1: 60-mer ssDNA (ssDNA)
DNA: GCCAAGCTTGCATGCCTGCAGGTCGACTCTAGAGGATCCCCGGGTACCGAGCTCGAATTC
B2: 66-mer ssDNA (ssDNA)
DNA: CTTATTAAAACGGCAACTCCTCCTCCGGCGGAAAGTCTTCCAAGCCTTCGTCAATGTCCACCCCAC

Tests used:
[1] = biological target: T1, ttSSB; experiment: pull-down
[2] = biological target: T2, ttRecR; experiment: EMSA

Row | Binder | binding result [1] | binding result [2]
1 | B1 | binds | 
2 | B2 |  | no binding
